Measured values: article PMC3476979

Molecular target: endogenous phospho-IKKα/β, O15111;O14920
Assay: co-immunoprecipitation (IP with anti-Tax mab, blot with anti-phospho-IKK), band quantified as Phospho-IKK/Tax
Conditions: 293 T cells, parent: 100

| Substance | percent of parent |
| --- | --- |
| wild-type Tax protein of Human T-lymphotropic virus type 1 (HTLV-1), C-terminal 6His tag (Tax-His) (from UniProt P03409) K7R | 95 % WT |
| wild-type Tax protein of Human T-lymphotropic virus type 1 (HTLV-1), C-terminal 6His tag (Tax-His) (from UniProt P03409) K1-10R | 3 % WT |
| wild-type Tax protein of Human T-lymphotropic virus type 1 (HTLV-1), C-terminal 6His tag (Tax-His) (from UniProt P03409) K7-8R | 27 % WT |
| wild-type Tax protein of Human T-lymphotropic virus type 1 (HTLV-1), C-terminal 6His tag (Tax-His) (from UniProt P03409) K6-8R | 10 % WT |
| wild-type Tax protein of Human T-lymphotropic virus type 1 (HTLV-1), C-terminal 6His tag (Tax-His) (from UniProt P03409) K4-8R | 2 % WT |
| wild-type Tax protein of Human T-lymphotropic virus type 1 (HTLV-1), C-terminal 6His tag (Tax-His) (from UniProt P03409) P79A; Q81A | 84 % WT |
| wild-type Tax protein of Human T-lymphotropic virus type 1 (HTLV-1), C-terminal 6His tag (Tax-His) (from UniProt P03409) M22 | < 1 % WT |
